{"source": "patent JP2009045066A", "about": "(dated 2009)", "biological_target": "T1, 天然のヒトCD4(細胞表面) (human, UniProt P01730 26-458)", "T1 construct": "whole, on cells; also called nCD4; CD4 on SupT1 cells", "test": "flow cytometry on SupT1 cells, serial dilutions, half-maximal fluorescence"}
{"binder": "4D1 (antibody, V domains shown) VH: EVQLVQSGAEVKKPGESLKISCKGSGYSFTGYWIGWVRQMPGKGLEWMGIIYPGDSDTTYSPSFQGQVTISADKSISTAYLQWSSLKASDTAMYYCARDQLGLFDYWGQGTLVTVSS VL: DIQMTQSPSSLSASVGDRVTITCRASQGISSWLAWYQQKPEKAPKSLIYSASSLQSGVPSRFSGSGSGTDFTLTISSLQPEDFATYYCQQYDSYPYTFGQGTKLEIK", "values": [{"measurement": "Ka", "result": "> 1e+09", "unit": "M⁻¹"}]}
